Assays:
epas1_mouse Epas1 = epas1_mouse Epas1 (UniProt P97481)
arnt_mouse Arnt [1] = molecular target: arnt_mouse Arnt (UniProt P53762)
arnt_mouse Arnt [2] = molecular target: arnt_mouse Arnt (UniProt P53762); remark: listed apart in the source

Sequence of Hif1a, Q61221-1 (Q61221 whole entry, the tested form may be a part): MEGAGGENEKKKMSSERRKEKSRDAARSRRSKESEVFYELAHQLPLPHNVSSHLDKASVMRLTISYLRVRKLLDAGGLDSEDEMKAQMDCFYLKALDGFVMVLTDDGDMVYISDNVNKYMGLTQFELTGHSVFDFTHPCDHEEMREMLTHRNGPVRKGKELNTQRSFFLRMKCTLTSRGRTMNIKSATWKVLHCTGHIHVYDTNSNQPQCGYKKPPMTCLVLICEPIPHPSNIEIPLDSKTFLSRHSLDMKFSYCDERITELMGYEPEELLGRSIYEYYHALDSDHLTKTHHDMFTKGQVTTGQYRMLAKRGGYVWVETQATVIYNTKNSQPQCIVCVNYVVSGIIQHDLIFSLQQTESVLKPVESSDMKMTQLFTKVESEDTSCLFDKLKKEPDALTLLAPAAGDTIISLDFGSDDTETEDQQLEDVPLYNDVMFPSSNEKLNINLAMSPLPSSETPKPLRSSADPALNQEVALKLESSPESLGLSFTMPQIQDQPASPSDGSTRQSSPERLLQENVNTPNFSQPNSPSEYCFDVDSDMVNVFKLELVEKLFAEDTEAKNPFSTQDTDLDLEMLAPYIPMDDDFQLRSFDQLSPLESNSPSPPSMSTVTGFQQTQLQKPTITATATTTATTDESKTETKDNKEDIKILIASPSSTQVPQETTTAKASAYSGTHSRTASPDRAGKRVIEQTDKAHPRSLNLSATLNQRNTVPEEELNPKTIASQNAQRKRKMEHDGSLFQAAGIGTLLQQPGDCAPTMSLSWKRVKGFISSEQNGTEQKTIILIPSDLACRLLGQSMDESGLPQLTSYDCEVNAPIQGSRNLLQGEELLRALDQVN
Sequence of Hypoxia-inducible factor 1-alpha (Mus musculus), Q61221-1 V191D (Q61221 whole entry V191D): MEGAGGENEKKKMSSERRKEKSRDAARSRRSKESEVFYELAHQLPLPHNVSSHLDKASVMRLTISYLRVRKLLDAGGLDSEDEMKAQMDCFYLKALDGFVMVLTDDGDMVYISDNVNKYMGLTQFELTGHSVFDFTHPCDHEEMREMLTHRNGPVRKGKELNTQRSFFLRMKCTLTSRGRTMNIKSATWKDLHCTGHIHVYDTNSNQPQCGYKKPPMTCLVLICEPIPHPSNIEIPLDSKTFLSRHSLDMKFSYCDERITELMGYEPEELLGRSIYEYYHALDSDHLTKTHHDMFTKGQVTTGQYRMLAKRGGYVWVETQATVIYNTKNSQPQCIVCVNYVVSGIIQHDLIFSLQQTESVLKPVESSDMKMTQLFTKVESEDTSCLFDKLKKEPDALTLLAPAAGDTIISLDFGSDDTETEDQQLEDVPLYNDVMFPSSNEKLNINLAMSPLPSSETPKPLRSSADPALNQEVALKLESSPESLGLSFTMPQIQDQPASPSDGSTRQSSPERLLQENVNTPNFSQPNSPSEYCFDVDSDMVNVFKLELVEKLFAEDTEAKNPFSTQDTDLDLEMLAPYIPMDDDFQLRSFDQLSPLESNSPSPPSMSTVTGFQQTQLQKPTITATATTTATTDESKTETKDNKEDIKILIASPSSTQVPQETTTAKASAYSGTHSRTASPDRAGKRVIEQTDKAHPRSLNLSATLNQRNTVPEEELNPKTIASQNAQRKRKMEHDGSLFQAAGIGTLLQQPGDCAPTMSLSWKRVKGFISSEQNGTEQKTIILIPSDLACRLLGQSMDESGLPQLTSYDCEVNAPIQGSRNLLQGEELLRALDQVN
Sequence of Hypoxia-inducible factor 1-alpha (Mus musculus), Q61221-1 R170A;V191D (Q61221 whole entry R170A/V191D): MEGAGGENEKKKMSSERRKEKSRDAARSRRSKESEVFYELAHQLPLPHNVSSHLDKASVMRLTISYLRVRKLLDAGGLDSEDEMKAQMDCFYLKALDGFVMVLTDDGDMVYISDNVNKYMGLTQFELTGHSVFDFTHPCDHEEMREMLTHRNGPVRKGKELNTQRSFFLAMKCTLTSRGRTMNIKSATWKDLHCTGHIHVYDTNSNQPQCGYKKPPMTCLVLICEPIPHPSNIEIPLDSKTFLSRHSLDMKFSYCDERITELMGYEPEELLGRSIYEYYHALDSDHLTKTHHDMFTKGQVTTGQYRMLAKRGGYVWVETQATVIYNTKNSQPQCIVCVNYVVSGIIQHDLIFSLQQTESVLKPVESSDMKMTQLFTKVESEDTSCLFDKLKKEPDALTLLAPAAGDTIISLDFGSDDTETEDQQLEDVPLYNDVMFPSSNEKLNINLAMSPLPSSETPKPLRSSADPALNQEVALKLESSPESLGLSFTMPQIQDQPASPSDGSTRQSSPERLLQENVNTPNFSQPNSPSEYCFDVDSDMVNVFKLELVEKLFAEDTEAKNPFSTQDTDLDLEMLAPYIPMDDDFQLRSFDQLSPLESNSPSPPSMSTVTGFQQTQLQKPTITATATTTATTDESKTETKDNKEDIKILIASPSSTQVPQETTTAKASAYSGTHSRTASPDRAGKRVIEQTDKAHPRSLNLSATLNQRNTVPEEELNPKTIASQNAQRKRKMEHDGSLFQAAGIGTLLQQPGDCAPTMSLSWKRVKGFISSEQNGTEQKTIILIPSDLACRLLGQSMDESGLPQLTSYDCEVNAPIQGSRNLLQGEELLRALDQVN
Sequence of Hypoxia-inducible factor 1-alpha (Mus musculus), Q61221-1 R170A (Q61221 whole entry R170A): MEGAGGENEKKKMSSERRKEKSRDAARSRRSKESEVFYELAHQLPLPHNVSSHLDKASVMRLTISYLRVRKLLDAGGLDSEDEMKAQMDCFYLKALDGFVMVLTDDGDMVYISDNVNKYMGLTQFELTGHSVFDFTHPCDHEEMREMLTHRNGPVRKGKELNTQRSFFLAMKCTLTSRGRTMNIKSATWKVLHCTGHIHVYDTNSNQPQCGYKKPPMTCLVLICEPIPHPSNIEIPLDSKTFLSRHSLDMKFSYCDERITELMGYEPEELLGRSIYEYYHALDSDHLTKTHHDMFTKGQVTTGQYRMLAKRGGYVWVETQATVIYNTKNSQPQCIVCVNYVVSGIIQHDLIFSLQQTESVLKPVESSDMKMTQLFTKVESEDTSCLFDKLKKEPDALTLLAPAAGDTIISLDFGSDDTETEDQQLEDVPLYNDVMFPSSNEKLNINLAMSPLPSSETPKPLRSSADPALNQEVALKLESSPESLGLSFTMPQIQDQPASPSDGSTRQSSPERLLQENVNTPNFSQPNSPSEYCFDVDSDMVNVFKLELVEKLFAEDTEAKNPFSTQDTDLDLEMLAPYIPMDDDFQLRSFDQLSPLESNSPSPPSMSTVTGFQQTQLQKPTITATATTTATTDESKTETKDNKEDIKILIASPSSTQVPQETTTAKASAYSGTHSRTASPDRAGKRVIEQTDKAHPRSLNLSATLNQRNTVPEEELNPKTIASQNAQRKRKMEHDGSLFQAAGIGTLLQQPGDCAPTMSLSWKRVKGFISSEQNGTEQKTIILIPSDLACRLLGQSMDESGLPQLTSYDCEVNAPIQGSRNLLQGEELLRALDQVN

Row | Substance | effect of a mutation on the interaction (epas1_mouse Epas1) | effect of a mutation on the interaction (Hif1a, Q61221-1) | effect of a mutation on the interaction (arnt_mouse Arnt [1]) | effect of a mutation on the interaction (arnt_mouse Arnt [2])
1 | Aryl hydrocarbon receptor nuclear translocator (Mus musculus), P53762 L112E;L132E | disrupting interaction strength | disrupting interaction strength |  | 
2 | Aryl hydrocarbon receptor nuclear translocator (Mus musculus), P53762 R366A;N448A | disrupting interaction strength | disrupting interaction strength |  | 
3 | Aryl hydrocarbon receptor nuclear translocator (Mus musculus), P53762 V136D | disrupting interaction strength | disrupting interaction strength |  | 
4 | Aryl hydrocarbon receptor nuclear translocator (Mus musculus), P53762 I264D | disrupting interaction strength | decreasing interaction strength |  | 
5 | Aryl hydrocarbon receptor nuclear translocator (Mus musculus), P53762 R366A | decreasing interaction strength | decreasing interaction strength |  | 
6 | Endothelial PAS domain-containing protein 1 (Mus musculus), P97481 R171A |  |  | decreasing interaction strength | 
7 | Endothelial PAS domain-containing protein 1 (Mus musculus), P97481 V192D |  |  | decreasing interaction strength | 
8 | Aryl hydrocarbon receptor nuclear translocator (Mus musculus), P53762 L132E | disrupting interaction strength | disrupting interaction strength |  | 
9 | Aryl hydrocarbon receptor nuclear translocator (Mus musculus), P53762 R266A | decreasing interaction strength |  |  | 
10 | Aryl hydrocarbon receptor nuclear translocator (Mus musculus), P53762 L112E | disrupting interaction strength | disrupting interaction strength |  | 

Second part, the substance after the results:

Row | effect of a mutation on the interaction (epas1_mouse Epas1) | effect of a mutation on the interaction (Hif1a, Q61221-1) | effect of a mutation on the interaction (arnt_mouse Arnt [1]) | effect of a mutation on the interaction (arnt_mouse Arnt [2]) | Substance
11 |  |  | decreasing interaction strength |  | Endothelial PAS domain-containing protein 1 (Mus musculus), P97481 H194A
12 | decreasing interaction strength | decreasing interaction strength |  |  | Aryl hydrocarbon receptor nuclear translocator (Mus musculus), P53762 V305D
13 | decreasing interaction strength | decreasing interaction strength |  |  | Aryl hydrocarbon receptor nuclear translocator (Mus musculus), P53762 I264D;V305D
14 |  |  |  | decreasing interaction strength | Hypoxia-inducible factor 1-alpha (Mus musculus), Q61221-1 R170A;V191D
15 | disrupting interaction strength | decreasing interaction strength |  |  | Aryl hydrocarbon receptor nuclear translocator (Mus musculus), P53762 L167E
16 |  |  | disrupting interaction strength |  | Endothelial PAS domain-containing protein 1 (Mus musculus), P97481 R171A;V192D
17 | disrupting interaction strength | disrupting interaction strength |  |  | Aryl hydrocarbon receptor nuclear translocator (Mus musculus), P53762 I168D
18 |  |  |  | decreasing interaction strength | Hypoxia-inducible factor 1-alpha (Mus musculus), Q61221-1 R170A
19 |  |  | decreasing interaction strength |  | Endothelial PAS domain-containing protein 1 (Mus musculus), P97481 F169D
20 | disrupting interaction strength | decreasing interaction strength |  |  | Aryl hydrocarbon receptor nuclear translocator (Mus musculus), P53762 A171D
21 | disrupting interaction strength | decreasing interaction strength |  |  | Aryl hydrocarbon receptor nuclear translocator (Mus musculus), P53762 L167E;A171D
22 |  |  |  | decreasing interaction strength | Hypoxia-inducible factor 1-alpha (Mus musculus), Q61221-1 V191D
